# ± gives the uncertainty stated by the source.
# B1: WW domain-containing transcription regulator protein 1, residues 116 to 162; numbered along this chain, Q9GZV5 (parent)
# chain: QSYDVTDELPLPPGWEMTFTATGQRYFLNHIEKITTWQDPRKAMNQP
# Variants of: B1
# Assay: abundance fitness (aPCA) (normalised: wild type 0, dead -1); higher = more abundant; growth selection in yeast, the domain comes from the species named
# Details: Homo sapiens
row,Variant,abundance fitness
1,E32Y,0.054 ± 0.049
2,L9M,-0.009 ± 0.029
3,W37R,-0.392 ± 0.03
4,E32S,-0.02 ± 0.025
5,Q46W,-0.046 ± 0.041
6,R41Q,-0.447 ± 0.074
7,I31S,-0.182 ± 0.099
8,Q46A,-0.138 ± 0.039
9,L28Y,-0.268 ± 0.087
10,A21D,-0.029 ± 0.042
11,S2I,-0.026 ± 0.071
12,K33C,-0.198 ± 0.038
13,G14A,-0.365 ± 0.027
14,Q38M,-0.044 ± 0.028
15,N29V,-1.09 ± 0.036
16,M44C,-0.02 ± 0.055
17,Q46P,0.026 ± 0.037
18,T22L,-0.192 ± 0.034
19,Y26C,-0.566 ± 0.065
20,F27Y,-0.027 ± 0.03
21,Y26G,-0.661 ± 0.047

row,Variant,abundance fitness
1,D39V,-0.721 ± 0.065
2,Q38D,-0.129 ± 0.033
3,N29L,-1.01 ± 0.035
4,L11H,-0.676 ± 0.081
5,E16W,-0.389 ± 0.06
6,G14E,-0.21 ± 0.037
7,A43Y,-0.127 ± 0.044
8,E8I,-0.274 ± 0.087
9,D39P,-0.588 ± 0.065
10,W37Y,-0.073 ± 0.047
11,T22C,-0.033 ± 0.034
12,T35F,-0.566 ± 0.037
13,T18E,-0.064 ± 0.03
14,S2E,-0.274 ± 0.055
15,Q46F,0.04 ± 0.025
16,N45W,-0.043 ± 0.041
17,S2G,-0.034 ± 0.027
18,S2Q,-0.167 ± 0.065
19,Q38R,-0.017 ± 0.023
20,E16I,-0.266 ± 0.028
21,E32F,0.122 ± 0.046

row,Variant,abundance fitness
1,W37N,-0.364 ± 0.051
2,P12M,-0.862 ± 0.085
3,A43F,-0.016 ± 0.054
4,F19K,-0.047 ± 0.045
5,Q46T,-0.058 ± 0.045
6,F27M,-0.904 ± 0.035
7,T35I,-0.419 ± 0.05
8,K33N,-0.041 ± 0.027
9,H30I,-0.412 ± 0.049
10,I34P,-0.813 ± 0.034
11,E16V,-0.193 ± 0.027
12,T36A,-0.377 ± 0.04
13,T6A,-0.196 ± 0.037
14,P13W,-0.245 ± 0.04
15,N29R,-0.763 ± 0.048
16,F19R,-0.089 ± 0.032
17,M17P,-0.345 ± 0.037
18,Y26D,-0.739 ± 0.085
19,K33Y,-0.733 ± 0.084
20,N45S,-0.093 ± 0.041
21,P40S,-0.983 ± 0.064

row,Variant,abundance fitness
1,T35K,-0.433 ± 0.056
2,L11D,-0.732 ± 0.048
3,I31N,-0.162 ± 0.23
4,A43W,0.086 ± 0.048
5,N45R,-0.109 ± 0.028
6,Y26K,-0.506 ± 0.051
7,K42D,-0.26 ± 0.061
8,T36D,-0.816 ± 0.073
9,Q1M,0.26 ± 0.1
10,R25Q,-0.116 ± 0.033
11,T36I,-0.831 ± 0.088
12,K42S,-0.203 ± 0.035
13,D4E,-0.072 ± 0.043
14,W37E,-0.244 ± 0.032
15,W15H,-0.876 ± 0.17
16,D7E,-0.314 ± 0.05
17,Q1A,-0.519 ± 0.15
18,Y3M,0.182 ± 0.11
19,R25T,-0.295 ± 0.051
20,A21P,-0.088 ± 0.05
21,I31V,-0.094 ± 0.074
